In US20190330346A1 (REMD BIOTHERAPEUTICS, published 2019) one finds Kd, koff and kon data, which are given here for 16 molecules.

Experiment [1] deals with T1, His-tagged human PD-1 protein (human, UniProt Q15116 25-170, limits assumed).
T1 construct: SPR analyte; also called his-tagged antigen PD-1; not shown: His tag
In words: SPR; Fab-SASA captured on immobilised BSA, his-tagged PD-1 as analyte. How it is done: For affinity ranking, BSA was immobilized onto the sensor chip using amine coupling method. The selected Fab-SASA secreted to the culture medium was injected and captured by BSA through the tight binding between BSA and SASA (capture phase). After equilibration, his-tagged antigen PD-1 was injected for 300 seconds (association phase) followed by the injection of running buffer for 900 seconds (dissociation phase). The surface was regenerated before the injection of another three Fab-SASA clones. The process was repeated until all selected Fab-SASA proteins were analyzed. Responses of reference flow cell were subtracted from those of Fab-SASA flow cells during each cycle. The antibodies were ranked by their dissociation rate constants (off-rates, […]). […]

For another experiment, the target named is T2, human PD-1 (human, UniProt Q15116 25-167).
T2 construct: The immunogen was PD1/Fc (Leu25-Gln167 fused to human IgG1 Pro100-Lys330); also called huPD-1; hPD-1
The experiment in a line: SPR, multiple-cycle, crude Fab from E. coli; antigen form not stated. An excerpt: A homology model of mouse anti-PD1 Fv was built wherein putative back mutation sites (i.e., buried residues of the frameworks that are different in the mouse and human acceptor sequences) were identified. There were a total of 14 putative back mutation sites. A variant humanized Fab comprising all 14 of the putative back mutation sites of PD1-grafted Ab mutated back to their mouse counterparts (hereinafter identified as “PD1-BM Ab”) comprising the heavy chain variable region sequence set forth in SEQ ID NO: 38 and the light chain variable region sequence set forth in SEQ ID NO: 39, was synthesized. In addition, 14 variants of PD1-BM Ab (hereinafter identified as Fabs 1-14), each having at least one of the putative 14 back mutation sites in PD1-BM Ab mutated back to the human counterpart, were synthesized. These constructs were used to transform E. coli TG1 strain. Single colonies were pick for each individual construct and grown in E. coli medium. Crude chimeric and humanized Fabs were collected and subjected to multiple-cycle affinity estimation by Surface Plasmon Resonance (SPR).

T1 sequence (Q15116 25-170 limits assumed): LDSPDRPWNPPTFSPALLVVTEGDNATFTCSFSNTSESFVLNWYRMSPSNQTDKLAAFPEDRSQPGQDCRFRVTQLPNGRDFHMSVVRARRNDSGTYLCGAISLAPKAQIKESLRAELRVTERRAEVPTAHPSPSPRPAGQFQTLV
T2 sequence (Q15116 25-167 limits assumed): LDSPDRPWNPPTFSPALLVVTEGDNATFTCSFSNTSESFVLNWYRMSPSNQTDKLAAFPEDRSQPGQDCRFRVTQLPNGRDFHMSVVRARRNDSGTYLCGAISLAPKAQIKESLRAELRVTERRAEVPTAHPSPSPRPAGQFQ

B1: AS05616 (Fab, V domains shown)
VH: EVQLVESGGGLVQPGGSLRLSCAASGFVFSRYDMAWVRQTPGKGLEWVSFISGGGSNTYYPDTVKGRFTISRDNSKNTLYLQMNSLRAEDTAVYYCISPYYYAMEYWGQGTTVTVSS
VL: DIQMTQSPSSISTSVGDRVTITCKASQDVDTAVAWYQQKPGKSPKLLIHWASTRHTGVPSRFSGSGSGTDFTLTISSLQPEDFADYFCQQYSTFPWTFGGGTKVEIK
notes: Humanized Fab-SASA clone from the phage library
For the molecule B1, in experiment [1], binding was characterised by a dissociation constant (Kd) of 0.311 nM, the off-rate (koff) came to 0.000105 s⁻¹ and the kon was 336000 M⁻¹ s⁻¹.

B2: Fab 11 (Fab, V domains shown)
VH: EVQLVESGGGLVQPGGSLRLSCAASGFVFSRYDMAWVRQTPGKGLEWVAFISGGGSNTYYPDTVKGRFTISRDNSKNTLYLQMNSLRAEDTAVYYCISPYYYAMEYWGQGTTVTVSS
VL: DIQMTQSPSSISTSVGDRVTITCKASQDVDTAVAWYQQKPGKSPKLLIHWASTRHTGVPSRFSGSGSGTDFTLTLSSVQPEDFADYFCQQYSTFPWTFGGGTKLEIK
notes: Crude Fab from E. coli; also called PD1-BM VL-L83F
In the experiment with human PD-1, B2 showed an equilibrium dissociation constant (Kd) of 0.72 nM, a koff of 0.00022 s⁻¹ and a kon of 300000 M⁻¹ s⁻¹.

B3: Fab 6 (Fab, V domains shown)
VH: EVQLVESGGGLVQPGGSLRLSCAASGFVFSRYDMAWVRQTPGKGLEWVAFISGGGSNTYYPDTVKGRFTISRDNSKNTLYLQMNSLRAEDTAVYYCISPYYYAMEYWGQGTTVTVSS
VL: DIQMTQSPSSISASVGDRVTITCKASQDVDTAVAWYQQKPGKSPKLLIHWASTRHTGVPSRFSGSGSGTDFTLTLSSVQPEDLADYFCQQYSTFPWTFGGGTKLEIK
notes: Crude Fab from E. coli; also called PD1-BM VL-T13A
In the experiment with human PD-1, B3 registered a Kd of 0.25 nM, a koff of 9.6e-05 s⁻¹ and a kon of 380000 M⁻¹ s⁻¹.

B4: Fab 8 (Fab, V domains shown)
VH: EVQLVESGGGLVQPGGSLRLSCAASGFVFSRYDMAWVRQTPGKGLEWVAFISGGGSNTYYPDTVKGRFTISRDNSKNTLYLQMNSLRAEDTAVYYCISPYYYAMEYWGQGTTVTVSS
VL: DIQMTQSPSSISTSVGDRVTITCKASQDVDTAVAWYQQKPGKSPKLLIYWASTRHTGVPSRFSGSGSGTDFTLTLSSVQPEDLADYFCQQYSTFPWTFGGGTKLEIK
notes: Crude Fab from E. coli; also called PD1-BM VL-H49Y
In the experiment with human PD-1, B4 returned a Kd of 0.57 nM, a koff of 0.00019 s⁻¹ and an on-rate (kon) of 340000 M⁻¹ s⁻¹.

B5: Fab 12 (Fab, V domains shown)
VH: EVQLVESGGGLVQPGGSLRLSCAASGFVFSRYDMAWVRQTPGKGLEWVAFISGGGSNTYYPDTVKGRFTISRDNSKNTLYLQMNSLRAEDTAVYYCISPYYYAMEYWGQGTTVTVSS
VL: DIQMTQSPSSISTSVGDRVTITCKASQDVDTAVAWYQQKPGKSPKLLIHWASTRHTGVPSRFSGSGSGTDFTLTLSSVQPEDLATYFCQQYSTFPWTFGGGTKLEIK
notes: Crude Fab from E. coli; also called PD1-BM VL-D85T
In the experiment with human PD-1, B5 gave an equilibrium dissociation constant (Kd) of 0.28 nM, a koff of 9.4e-05 s⁻¹ and a kon of 330000 M⁻¹ s⁻¹.

B6: Fab 14 (Fab, V domains shown)
VH: EVQLVESGGGLVQPGGSLRLSCAASGFVFSRYDMAWVRQTPGKGLEWVAFISGGGSNTYYPDTVKGRFTISRDNSKNTLYLQMNSLRAEDTAVYYCISPYYYAMEYWGQGTTVTVSS
VL: DIQMTQSPSSISTSVGDRVTITCKASQDVDTAVAWYQQKPGKSPKLLIHWASTRHTGVPSRFSGSGSGTDFTLTLSSVQPEDLADYFCQQYSTFPWTFGGGTKVEIK
notes: Crude Fab from E. coli; also called PD1-BM VL-L104V
On to B6, for which, in the experiment with human PD-1, the Kd amounted to 0.68 nM, the dissociation rate constant (koff) was 0.0002 s⁻¹ and the kon was 300000 M⁻¹ s⁻¹.

B7: Fab 1 (Fab, V domains shown)
VH: EVQLVESGGGLVQPGGSLRLSCAASGFVFSRYDMAWVRQAPGKGLEWVAFISGGGSNTYYPDTVKGRFTISRDNSKNTLYLQMNSLRAEDTAVYYCISPYYYAMEYWGQGTTVTVSS
VL: DIQMTQSPSSISTSVGDRVTITCKASQDVDTAVAWYQQKPGKSPKLLIHWASTRHTGVPSRFSGSGSGTDFTLTLSSVQPEDLADYFCQQYSTFPWTFGGGTKLEIK
notes: Crude Fab from E. coli; also called PD1-BM VH-T40A
Turning to B7, in the experiment with human PD-1, binding was put at a Kd of 0.32 nM, the koff came to 9.8e-05 s⁻¹ and the kon is 310000 M⁻¹ s⁻¹.

B8: Fab 10 (Fab, V domains shown)
VH: EVQLVESGGGLVQPGGSLRLSCAASGFVFSRYDMAWVRQTPGKGLEWVAFISGGGSNTYYPDTVKGRFTISRDNSKNTLYLQMNSLRAEDTAVYYCISPYYYAMEYWGQGTTVTVSS
VL: DIQMTQSPSSISTSVGDRVTITCKASQDVDTAVAWYQQKPGKSPKLLIHWASTRHTGVPSRFSGSGSGTDFTLTLSSLQPEDLADYFCQQYSTFPWTFGGGTKLEIK
notes: Crude Fab from E. coli; also called PD1-BM VL-V78L
Take B8: in the experiment with human PD-1, the Kd was 0.29 nM, the off-rate (koff) came to 9.1e-05 s⁻¹ and the kon was found to be 320000 M⁻¹ s⁻¹.

B9: Fab 13 (Fab, V domains shown)
VH: EVQLVESGGGLVQPGGSLRLSCAASGFVFSRYDMAWVRQTPGKGLEWVAFISGGGSNTYYPDTVKGRFTISRDNSKNTLYLQMNSLRAEDTAVYYCISPYYYAMEYWGQGTTVTVSS
VL: DIQMTQSPSSISTSVGDRVTITCKASQDVDTAVAWYQQKPGKSPKLLIHWASTRHTGVPSRFSGSGSGTDFTLTLSSVQPEDLADYYCQQYSTFPWTFGGGTKLEIK
notes: Crude Fab from E. coli; also called PD1-BM VL-F87Y
For the molecule B9, in the experiment with human PD-1, the equilibrium dissociation constant (Kd) came out at 0.29 nM, the koff worked out at 0.0001 s⁻¹ and the on-rate (kon) stood at 350000 M⁻¹ s⁻¹.

B10: Fab 7 (Fab, V domains shown)
VH: EVQLVESGGGLVQPGGSLRLSCAASGFVFSRYDMAWVRQTPGKGLEWVAFISGGGSNTYYPDTVKGRFTISRDNSKNTLYLQMNSLRAEDTAVYYCISPYYYAMEYWGQGTTVTVSS
VL: DIQMTQSPSSISTSVGDRVTITCKASQDVDTAVAWYQQKPGKAPKLLIHWASTRHTGVPSRFSGSGSGTDFTLTLSSVQPEDLADYFCQQYSTFPWTFGGGTKLEIK
notes: Crude Fab from E. coli; also called PD1-BM VL-S43A
As for B10, in the experiment with human PD-1, binding was characterised by a dissociation constant (Kd) of 0.59 nM, the off-rate (koff) is 0.00016 s⁻¹ and the kon stood at 270000 M⁻¹ s⁻¹.

B11: AS05617 (Fab) (Fab, V domains shown)
VH: EVQLVESGGGLVQPGGSLRLSCAASGFVFSRYDMAWVRQTPGKGLEWVSFISGGGSNTYYPDTVKGRFTISRDNSKNTLYLQMNSLRAEDTAVYYCISPYYYAMEYWGQGTTVTVSS
VL: DIQMTQSPSSISTSVGDRVTITCKASQDVDTAVAWYQQKPGKSPKLLIYWASTRHTGVPSRFSGSGSGTDFTLTISSLQPEDFADYFCQQYSTFPWTFGGGTKVEIK
notes: as for B1
As for B11, in experiment [1], binding was put at a Kd of 0.0854 nM, the koff came to 3e-05 s⁻¹ and the on-rate constant (kon) came to 351000 M⁻¹ s⁻¹.

B12: Fab 3 (Fab, V domains shown)
VH: EVQLVESGGGLVQPGGSLRLSCAASGFVFSRYDMAWVRQTPGKGLEWVAFISGGGSNTYYPDTVKGRFTISRDNSKNTLYLQMNSLRAEDTAVYYCASPYYYAMEYWGQGTTVTVSS
VL: DIQMTQSPSSISTSVGDRVTITCKASQDVDTAVAWYQQKPGKSPKLLIHWASTRHTGVPSRFSGSGSGTDFTLTLSSVQPEDLADYFCQQYSTFPWTFGGGTKLEIK
notes: Crude Fab from E. coli; also called PD1-BM VH-I97A
In the experiment with human PD-1, B12 displayed a Kd of 1.1 nM, a koff of 0.00035 s⁻¹ and an association rate constant (kon) of 320000 M⁻¹ s⁻¹.

B13: AS05614 (Fab, V domains shown)
VH: EVQLVESGGGLVQPGGSLRLSCAASGFVFSRYDMAWVRQTPGKGLEWVSFISGGGSNTYYPDTVKGRFTISRDNSKNTLYLQMNSLRAEDTAVYYCISPYYYAMEYWGQGTTVTVSS
VL: DIQMTQSPSSISTSVGDRVTITCKASQDVDTAVAWYQQKPGKSPKLLIHWASTRHTGVPSRFSGSGSGTDFTLTLSSVQPEDFATYFCQQYSTFPWTFGGGTKVEIK
notes: as for B1
In experiment [1], B13 showed an equilibrium dissociation constant (Kd) of 0.37 nM, an off-rate (koff) of 0.000134 s⁻¹ and a kon of 363000 M⁻¹ s⁻¹.

B14: Fab 5 (Fab, V domains shown)
VH: EVQLVESGGGLVQPGGSLRLSCAASGFVFSRYDMAWVRQTPGKGLEWVAFISGGGSNTYYPDTVKGRFTISRDNSKNTLYLQMNSLRAEDTAVYYCISPYYYAMEYWGQGTTVTVSS
VL: DIQMTQSPSSVSTSVGDRVTITCKASQDVDTAVAWYQQKPGKSPKLLIHWASTRHTGVPSRFSGSGSGTDFTLTLSSVQPEDLADYFCQQYSTFPWTFGGGTKLEIK
notes: Crude Fab from E. coli; also called PD1-BM VL-I11V
In the experiment with human PD-1, B14 came in with a Kd of 0.34 nM, a koff of 0.00013 s⁻¹ and an association rate constant (kon) of 370000 M⁻¹ s⁻¹.

B15: Fab 9 (Fab, V domains shown)
VH: EVQLVESGGGLVQPGGSLRLSCAASGFVFSRYDMAWVRQTPGKGLEWVAFISGGGSNTYYPDTVKGRFTISRDNSKNTLYLQMNSLRAEDTAVYYCISPYYYAMEYWGQGTTVTVSS
VL: DIQMTQSPSSISTSVGDRVTITCKASQDVDTAVAWYQQKPGKSPKLLIHWASTRHTGVPSRFSGSGSGTDFTLTISSVQPEDLADYFCQQYSTFPWTFGGGTKLEIK
notes: Crude Fab from E. coli; also called PD1-BM VL-L75I
B15: in the experiment with human PD-1, the affinity, expressed as Kd, was 0.24 nM; the dissociation rate constant (koff) was determined as 8e-05 s⁻¹; the kon turned out to be 330000 M⁻¹ s⁻¹.

B16: chimeric Fab (Fab, V domains shown)
VH: EVQLVESGGDLVKPGGSLKLSCAASGFVFSRYDMAWVRQTPEKRLEWVAFISGGGSNTYYPDTVKGRFTISRDNAKNTLYLQMTSLKSEDTAVYYCISPYYYAMEYWGQGTSVTVSS
VL: DIVMTQSHKFISTSVGDRVSITCKASQDVDTAVAWYQQKPGQSPKLLIHWASTRHTGVPDRFTGGGSGTDFTLTLSNVQSEDLADYFCQQYSTFPWTFGGGTRLEIK
notes: Crude murine-human chimeric Fab from E. coli TG1, made with the HCVR and LCVR of PD1#3; Only the variable domains are tied to it
In the experiment with human PD-1, B16 showed an equilibrium dissociation constant (Kd) of 0.5 nM, an off-rate constant (koff) of 0.00015 s⁻¹ and an on-rate constant (kon) of 300000 M⁻¹ s⁻¹.
